Assay results taken from US20200140868.

Molecular target: T1, Recombinant FANCE (149-536) wild-type, Q9HB96
T1 chain: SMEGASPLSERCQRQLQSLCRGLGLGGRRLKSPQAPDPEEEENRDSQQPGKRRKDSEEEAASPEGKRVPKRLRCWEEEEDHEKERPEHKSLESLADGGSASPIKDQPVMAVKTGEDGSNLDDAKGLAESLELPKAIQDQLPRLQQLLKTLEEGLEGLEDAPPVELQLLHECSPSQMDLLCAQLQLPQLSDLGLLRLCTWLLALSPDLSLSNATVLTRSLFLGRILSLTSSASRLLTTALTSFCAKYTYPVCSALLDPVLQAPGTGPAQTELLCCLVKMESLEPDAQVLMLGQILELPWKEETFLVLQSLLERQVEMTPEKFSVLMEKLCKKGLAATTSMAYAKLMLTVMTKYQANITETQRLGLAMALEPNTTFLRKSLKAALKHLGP

B1: purified recombinant Chk1 (Upstate Technology) (protein)
chain: MAVPFVEDWDLVQTLGEGAYGEVQLAVNRVTEEAVAVKIVDMKRAVDCPENIKKEICINKMLNHENVVKFYGHRREGNIQYLFLEYCSGGELFDRIEPDIGMPEPDAQRFFHQLMAGVVYLHGIGITHRDIKPENLLLDERDNLKISDFGLATVFRYNNRERLLNKMCGTLPYVAPELLKRREFHAEPVDVWSCGIVLTAMLAGELPWDQPSDSCQEYSDWKEKKTYLNPWKKIDSAPLALLHKILVENPSARITIPDIKKDRWYNKPLKKGAKRPRVTSGGVSESPSGFSKHIQSNLDFSPVNSASSEENVKYSSSQPEPRTGLSLWDTSPSYIDKLVQGISFSQPTCPDHMLLNSQLLGTPGSSQNPWQRLVKRMTRFFTKLDADKSYQCLKETCEKLGYQWKKSCMNQVTISTTDRRNNKLIFKVNLLEMDDKILVDFRLSKGDGLEFKRHFLKIKGKLIDIVSSQKIWLPAT
  in vitro kinase assay, Western blot with anti-pT346-FANCE and anti-pS374-FANCE: the recombinant FANCE (rFANCEwt) protein phosphorylated by Chk1 in vitro
